{"source": "a protein production outcome set (Wang et al. 2014)", "test": "label from the status in PepcDB records", "data": [{"sequence": "MKIVVNNQSTLAAELMIVAQENLQKLVEQTKCPNSKALLDRRIFKAKSGEVLPLLHGDKIVILLGLGLRQDFIASEYDKIIAKAAEQLKKLAIKEISVDIDYAFENDNVKQFTLDTVRALISETYVFDQLKTEKENYSLEQIELVYSGDQDIEDSAKIGSAIACGQNYAKDLQNLPANICTTDYMLNEARELTSKYATFSLDYLDQDAMAELGMGCALAVGRGSYMSNYTVCMEYKGGNEGDAPIVLVGKGLVFDNGGICIKQAAGMDSMKMDMGGVAAVMGTMKAIAMLNLPVNVVGVMGLAENAVDARSYRPGDVLKSMKGITVEVSNTDAEGRLVLCDTLTYIGKYKPKAVIDLATLTGAMIISLGDAYSGMFANSDKLANSLEQAANASNDLIWRLPLHKPYLKKIESKVADMDNCGRDRSAGSIVAALFLSKFTEDYEWAHLDIAGSAMGDFASCKASGRPVPLLVHYLISQAK", "values": [{"measurement": "protein production", "value": "not failed"}]}, {"sequence": "MTETYNKEQQEAMKKMMSFQMLYMLIMLGSLFIVITPSSRDAVGNLLNVVLIPTIGFGYRYPLLSIILTGVIIGVILSIPRYFFTDWVKMGKMQNTMKAFNEAIRAAYRERDMKKINKLNSMRMQMSMDQYQLSMNTMKPLLVISVLTILFYAWLFVFVGKIPYNYIAFPWDFNINISTAHFWIMPYWIFMYFLTEIVVSYFITMIMKYIDFTLRLRRISRETSS", "values": [{"measurement": "protein production", "value": "failed"}]}, {"sequence": "MSGSLARAAARPNAPTLVDEATVDDFIAHSGKIVVLFFRGDAVRFPEAADLAVVLPELINAFPGRLVAAEVAAEAERGLMARFGVAVCPSLAVVQPERTLGVIAKIQDWSSYLAQIGAMLAEVDQPGEAELQS", "values": [{"measurement": "protein production", "value": "not failed"}]}, {"sequence": "MKNVKFIKKSESVIGLWLPILVILILFAFLVAESVIMKDIILSNSVVALATAIMASAALVTILVSNRQVQLMARQQRLKAIEDRLEKFYIPLIKAFSSYVYTAQTEDEIETIITCRRYLAGNNLLRVLPMHFKFKADKIAGSANWTFYAKEDFEQWKEALDVLWEEFLEVLKEYYTLSGTEISLPEKPDWLIGYK", "values": [{"measurement": "protein production", "value": "failed"}]}, {"sequence": "RPKTGFQMWLEENRSNILSDNPDFSDEADIIKEGMIRFRVLSTEERKVWANKAKGETASEGTEAKKRK", "values": [{"measurement": "protein production", "value": "not failed"}]}, {"sequence": "METDPDYSMVLLTENFPPYNMAINGKNFAQEDNIDGIAVDIVREMFKRAGIKYSLTLRFPWDRIYKLALEKPGYGVFVTARLAEREDKFKWVGPIGPDDWVLLAKGDSPITLGSLDEAKKYRIGAYKGDAIAEFLGKNGFEADLEHHHHHH", "values": [{"measurement": "protein production", "value": "failed"}]}, {"sequence": "MREEKIREALNAHWQASAAGDFDAEHDIYDDDAICDYPQSGERILGRMNLQALRSHHPGKPAGFEVRRIQGEGNLWITEYSISYNGRPAYTVSIMEFRNGKVVHETQYFSDPFEAPGWRSQWVQQIG", "values": [{"measurement": "protein production", "value": "not failed"}]}, {"sequence": "MDQFPESVTENFEYDDLAEACYIGDIVVFGTVFLSIFYSVIFAIGLVGNLLVVFALTNSKKPKSVTDIYLLNLALSDLLFVATLPFWTHYLINEKGLHNAMCKFTTAFFFIGFFGSIFFITVISIDRYLAIVLAANSMNNRTVQHGVTISLGVWAAAILVAAPQFMFTKQKENECLGDYPEVLQEIWPVLRNVETNFLGFLLPLLIMSYCYFRIIQTLFSCKNHKKAKAIKLILLVVIVFFLFWTPYNVMIFLETLKLYDFFPSCDMRKDLRLALSVTETVAFSHCCLNPLIYAFAGEKFRRYLYHLYGKCLAVLCGRSVHVDFSSSESQRSRHGSVLSSNFTYHTSDGDALLLL", "values": [{"measurement": "protein production", "value": "failed"}]}, {"sequence": "MIKETVFKSFDTPSALEQQLASKIASQLQEAVDARGKASLVVSGGSTPLKLFQLLSMKSIDWSDVYITLADERWVEADADASNERLVREHLLQNRASNAKFRGLKNMFSTAEAGADMAAESLSNFPRPFDVVVLGMGNDGHTCSWFPCSAELENALTTQALCVATNPTTAPHGRITLSKSAILNSRQIYLHLVGEQKLSVYRQALESDDVHAMPIRAVLAQRKTPVDVFWSA", "values": [{"measurement": "protein production", "value": "not failed"}]}, {"sequence": "MSKVIFALVLVVVLVACINATYVEFEEAYAPVDCKGQCTTPCEPLTACKEKCAESCETSADKKTCRRNCKKADCEPQDKVCDACRMKCHKACRAANCASECPKHEHKSDTCRACMKTNCK", "values": [{"measurement": "protein production", "value": "not failed"}]}, {"sequence": "IESASDMIAAFGKDQRFITFNEAYQREFKRLFDKSISINMSLEEAFNNAPENKKKLVQSWKESLQRDEETKNIEVNTEQEKTIYEMTSKLIQNGDNEIKGVVHSVRNIT", "values": [{"measurement": "protein production", "value": "failed"}]}, {"sequence": "MPISAHYGLTVLIWGLTWTAIRLQVESASVDLAVFYRFVMASVVALAVLAVTRRLSRLTLGQHGWLFLQGLTLYSVNFLLIYRAAESMTSGLLAVVFSLAALFNAFNGWLWLRTRPTARLYPAVALGVTGVALLFWHDLQLGNATGASILFAVAGTFWFSMGNLVSVKVKAAGVPLFTANAWAMVYGALILGLWCLIQGVEWMLPATSVFWGATVFLAVPGSIVAFYCYITVIQVLGADKAGYAAVLFPVVALSVSTWLEGFEWTTPAMLGALLAILGNYVLFRPGKRQSVSATSVPEQRT", "values": [{"measurement": "protein production", "value": "failed"}]}, {"sequence": "MVTREEFVARFGGVFEHSPFIAERAYDAGGAGLELTAKAVHGALCAQFRVASEAERLGVLRAHPDLAGKLAIAGELTADSRNEQAGAGLDRLSPQEHARFTQLNSAYTEKFGFPFIIAVKGLNRHDILSAFDTRIDNNAAQEFATATGQVEKIAWLRLASMLPEG", "values": [{"measurement": "protein production", "value": "not failed"}]}, {"sequence": "RTFAVAAVAALVLPLSACGSGGDGGSSTDASGKVEGDITFQTWNLRANFKDYFEGLIADFEKKYPDTHVKWVDQPGEGYADKISADAAGGTLPDVVNVSPDLVAPLAKAGLALDLDKAAGQYEKEYLEGAWASHRIPGMDGTYAFPWYLNTGPLFYNKSLFEKAGLDPEQPPRTYDEVFDAALKIADKTDGEVATLANVPTIEDFGRYGVPLMNKEGTAFAFNDAKGVQLLARYKELYDAKALDPQALTATPESSGKKFLTGAVAMNPGSALDLANFKKQAPNLYENIGITDQITSTGHVNMYVMGLMVNAQSQRKPAAVAFAHYVTDAAHQMSFAKQVAIFPSTAGSLDDPYFTKEDGTDETRVRVAAAKSLKTAVNYTPVLFSEQMKTELRNEVAKALQGKQSPKEALDNAVKACDRLLQ", "values": [{"measurement": "protein production", "value": "failed"}]}, {"sequence": "MTIAFLVLVVALASGFAFLNGFRDVSNAVALSTRTRALTPSIAVLLAAIFNFVGAMLSGTFILAFTQSWITLPEGTSGLTMLASALTAAILWGVYAWWRGIPLSSTNSLIGGLIGAGAASVLVGGNAVGGMDNVLLTQVALPLVLSPVIAFVAAYLLVWPVTWAARYTQPNVVNRRFRRAQAISTAAVAFGHGLQDGQRTAAVMVLAMVAAGLSSGSDVPLWILLVTAIMLTAGTMFGGWRISHTLGHKLIRVDPLRGFVAQTLTSVMLFIGAIGFHLPLSTTHTLTAAVLGSGVNQRFHTVNRRLVRRVLLFWVATPLITAAAAFILELAFSPLADL", "values": [{"measurement": "protein production", "value": "failed"}]}, {"sequence": "MLIVDTILKPDRFGGIGLFSATRLPKGSLIWIHNPIVDITVTPEQYEALAPTFQALLDKHAYPRDYKAYDGVIEYNADNARFMNHSSRPNTYQDDRRVFTARDVQPGEELTCNYLFFDPRCDVSWNEEPSMNLDAPTG", "values": [{"measurement": "protein production", "value": "failed"}]}, {"sequence": "MFKPEEMVKIELISLARYRDIIMTYLHERGVVQLEEVPIEDIQHDAPNEYYRKATSYSITMGRLVDTLKGFLPPRKTSIKEFIFPKEREKRVYTYRGIEDLVKDVEKFLSEVEPKIREVETQLTAINNRIANIREIINTLELLSSLNIEIEYLIPGSFLAIEVGKIERERVEKLIGELKNELGDKVFILRRDLGTISLLVVVTLKEFQGKLTSILAKYGFEKVEIPRERGHPRELIPKYNELLKEEMKKLEEIRKKGREFAEKYYEDLVFYKELMDNERDKANYLSYLARTELTVALVGWLPKKNVEEVVEGIKNLTGGKVYINIREPEPNEIEEVPVKLKNPEFISQFEMLTEMYGVPKYNELDPTPILAFTYSFFFGFMLTDFMYGLLLGIVSALLVKGHSKMKDGTWKFAKIMLWSSVFTMLLGALFGSYFGNALDMAGFKVPRIMDAMEEALTVLIIALAIGLGHLFTGYVLGFIVKWKNGDKVGAILDQLSWILIILGVTLFAISSRIDLPKLAWMSVFGAGAVLFIIGEFKNNGLMALLLVISDFFGFVGNWLSYARLMALALATAGIALVINIMVQMIWGFKIGPVPLGIIVGAIVFIGGHIFSTAINALGAFVHALRLHYVEFFGTFYSGEGRRFEPFAARREISELKIEKPGGE", "values": [{"measurement": "protein production", "value": "failed"}]}, {"sequence": "MFESAEVGHSIDKDTYEKAVIELREALLEAQFELKQQARFPVIILINGIEGAGKGETVKLLNEWMDPRLIEVQSFLRPSDEELERPPQWRFWRRLPPKGRTGIFFGNWYSQMLYARVEGHIKEAKLDQAIDAAERFERMLCDEGALLFKFWFHLSKKQLKERLKALEKDPQHSWKLSPLDWKQSEVYDRFVHYGERVLRRTSRDYAPWYVVEGADERYRALTVGRILLEGLQAALATKERAKRQPHAAPLVSSLDNRGLLDSLDLGQYLDKDAYKEQLAAEQARLAGLIRDKRFRQHSLVAVFEGNDAAGKGGAIRRVTDALDPRQYHIVPIAAPTEEERAQPYLWRFWRHIPARRQFTIFDRSWYGRVLVERIEGFCAPADWLRAYGEINDFEEQLSEYGIIVVKFWLAIDKQTQMERFKEREKTPYKRYKITEEDWRNRDKWDQYVDAVGDMVDRTSTEIAPWTLVEANDKRFARVKVLRTINDAIEAAYKKDK", "values": [{"measurement": "protein production", "value": "not failed"}]}, {"sequence": "DNDAEALLWSELRDRRLNGFKFVRQVAVGPYFADFACRDERLVVEVDGSQHQIGSGDARRDKFMVMNGWSVLRFWNTDIFNDRAAVLETIVAVLEKRLVREVRSAD", "values": [{"measurement": "protein production", "value": "failed"}]}, {"sequence": "MSLSLWQQCLARLQDELPATEFSMWIRPLQAELSDNTLALYAPNRFVLDWVRDKYLNNINVLLNDFCGMDAPLLRFEVGSKPLVQTISQPAQSHHNPVSVARQQPVRMAPVRPSWDNSPVQAEHTYRSNVNPKHTFDNFVEGKSNQLARAAARQVADNPGGAYNPLFLYGGTGLGKTHLLHAVGNGIIARKPNAKVVYMHSERFVQDMVKALQNNAIEEFKRYYRSVDALLIDDIQFFANKERSQEEFFHTFNALLEGNQQIILTSDRYPKEINGVEDRLKSRFGWGLTVAIEPPELETRVAILMKKADENDIRLPGEVAFFIAKRLRSNVRELEGALNRVIANANFTGRSITIDFVREALRDLLALQEKLVTIDNIQKTVAEYYKIKIADLLSKRRSRSVARPRQMAMALAKELTNHSLPEIGDAFGGRDHTTVLHACRKIEQLREESHDIKEDFSNLIRTLSSLEHHHHHH", "values": [{"measurement": "protein production", "value": "not failed"}]}, {"sequence": "MIDVKSIILIVLDGLGDRPGEILGYRTPLQAAYHPNMNRMASLGMTGLMHPISPGIRSGSDTSHMSLLGYDPRVYYQGRGPFEALGLHMDMKPGDLAFRANFATNRDGKIIDRRAGRINAGNDQLASAISIDIGNYKFRVKSGVEHRAALVVSGPNLSDKISDSDPHSEGKPPEPIRPLDPSADSTAKIMNEYLKRIREILRDHPVNVEREKNGQIPGNELLIRSAGKVPDIPSFQEKNGITGACVVGSPWLKGLCRLLGMAVIDVPGAAGTINSNYTGKIKTAIDASKRYDFVLVNIKATDVAGHDGDYELKRRVIEDIDIAMEPLLGQSDRIVVAITGDHSTPCSVKDHSGDPVPIVFYTDGIYSDDVKLFDEVSAMKGALRITTQDVLNILMEMAGRAEKFGS", "values": [{"measurement": "protein production", "value": "not failed"}]}, {"sequence": "MDIKYKFPFALIIASAALVGCTSNQVKKEEAKPNPLPKLAQTQTQALVPIFSQSVSSMPKADPLRLQLDTLNGVIFVPDPKGKVSAYRGKERLWTTRVTKHRLTAGTVAGEGIVVVGNIKGELIALDQQTGQQKWKAQLTGAVLSPSLIYQGRVTTIANDGTVFAHDAETGQQVWTYKMPTIQFSLRGQPSPVMLDDRTVVVASANGYVYGIDVISGVPRFQRRVAVSEGRSDIQRLIDIDGDPVVSGQYLVTVSYQGQVTVTDLTNLSVVWNQDASSNKRPAVYDNKVFVAQADGKLTAYDLGTGSKLWESDVLLNRQLSNPVMLGKDLVVGDLDGVIHLINPDSGQLIGRAKTRGEVSSLRVVDGHLYTSTRKGALTIWEVR", "values": [{"measurement": "protein production", "value": "failed"}]}]}
